Laboratory results as given in the domain aggregation screens of Martell et al. (2025).

Assay: soluble fraction after stress (log2 fold change); higher = more stays soluble; pooled small domains, quantitative proteomics
Conditions: stress: 50 degC
Summary of the method: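 Pooled custom libraries of small protein domains were measured in a high-throughput format, with quantitative proteomics as the read-out. Each library was stressed at 50°C. Aggregation propensity is given as the base-two logarithm of the fold change in how much of each protein stays soluble after the stress. Higher values mean a larger share of the protein remains in solution.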

Sequence | soluble fraction (log2)
HMRGYGDRIRILRERAGITIEQLAERLGVAPYFIRRTELSEVYPTKPYIEALADVLNIDASYLARHI | -1.81
HMPIKYTHKGYTINVSRSKMNGTTFVKVVDPKGQVIQQSQDNRIQDVNQLVTTMKQYIDTLKPS | 0.189
HMLSNLYAVLGVGRRATPDEITAAFDAWNARADAGEPIDDPLWERVRYAWDVLSSPSRRDLYDSLVDDATG | -1.71
HMQETPAMLAMKELPTEDEQRIYMMLQEDYDSVLLVKTIRNAFSQNPQLTRQQLLPIILTWLMT | -1.14
HMSQRINLNSASIEDMQSLDISNEKIDSIIDYRNRYGNIHNIYELLKIPGITIGDIHSIRNAVTVEIPH | -0.112
HMSAQPMEYSRFYSDVTQGRVAEVEIEGREINGRLSTGERFKTFSPETDNKALIGHLLDNGVVIEGKPP | 0.234
HMHVSIAENIRRIRTQHDMTQEEFGKVAAVSAMAVSQWENGRAVPRMGAVQRIADYFNISKGEVID | -0.543
HMLDIQKKGENIAYIEGAGDVIPESLKQIGYHVVTIAPKDINAETLSRFDAVVVGIRAYNTVEDL | -0.244
HMENFIPDDPKRIEIGMSVLHQRFGKGKVMQLEGNLPDMKATVNFEGEGQKQLLLKYARLKIV | -0.232
HMAAHHIILEEREQLSVSGVEEVESFDENTIVMLTNRGTLIVRGEELHIEKLSLDGGDLRVEGSIDSLTYE | -0.274
HMEDKIIVTVPGEYHLERIDRFLAANLEEDLSRSLIQRYIRENLITVNGEAVRANYKVKTDDEILITFPQ | -0.603
HMVEVPNVIGMTKPELTQQFVNLKLDGSGEGDVVVQQSPSEGSKVKEGSTVRVYFG | 0.0119
HMKPPTIELSYSEFIELVERGKVSKVIFSSDNYTLKGETVNGENFETVRPPFLEDNLSEILTIHKVPVSSE | -0.208
HMSPSSPNQILGQYPKTKNDIILSSGRYGPYLKYNKKNYSLGNNISVEKLSLEEAVKIIDLKDKK | 0.0457
HMPRPLVAPMPGLIVRVTAVVGDSVDAGQGLVVMEAMKMENELRTTTAGVVKTVHVQPGVAVEKGALLIEF | -0.893
HMTRYQHLAMLLEKRIAQGLYRNGERLPSVRSLSAEHGVSISTVQQAYYLLEQKQLIIPQSRSGYYVAPH | -4.42
HMKEEDLPREYTDILGNSVHERLNIMIHDIIEHSQDKPEVAMSPEREEAMHGLRRWMFDHVYH | -0.202
HMDNPKGNLQEAVQAKGNEPIEYRVLNVDGPDHAREFKIAVFIGGKRKGTGVGNSKKKAEEIAAEKAFKRM | 0.127
HMDTLRARQEAAYRFLSAIAGDWRNYEEANRALFAGDAARFQDLTESWPADVRDHARHLASAAFSS | -0.543
HMSDQIQQIAERIAGLRDIAGYSVEELARELGISAEEYKRYESGEVDIPIGFLYKLANKYNVELTAILT | -0.0876
HMFIEHSKYKLSFKYNQLGKISNVINSNNGIIMDKHFDQNITLLAKLTENTFQEIIKHFPTIIIKRL | -3.19
HMVANLPFNYKVYAKKGKLYVVISYKDSNGKYKKKWIRTGLDEGTKKKEVNTVADQIAAEYYSSMRLE | -1.54
HMGPAYQTQRQEAFAALSEIAAKNPQLMQVAGDLVFRAADFPMADELADRLAKTLPPQLQDKKGQP | -0.464
HMNPFTHEEINLMSIYNAAGTREGLIAALTEMWGYLDAEETELRELADSALAKLRGITDAEYAALELE | -0.633
HMKYSNDEVERDLYVRGVIYQIGDLVENKLDGTSGEVVRRGPNYVQYTDGENFYKAFLSALQEQK | -0.354
HMNSNTIIINDIMTKIGKEVKNFTEIYSIILKALAEHGEEYVRTNTEYALKNFTGNFDIFLEQLLLK | -0.201
HMYLHSEFSPVTGQELHMKYDDSSTEEDPVMLVEGKDIQGNDFVKKIHLNDVDPENATPAEMTALRVHL | -0.541
HMQSVSANSVQKQLADIIDGEDKTHPLSDRELTEKLVAQGVQISRRTVAKYREAMGIPGASGRKQ | 0.072

Sequence | soluble fraction (log2)
HMFDTVKIGKRIAELRKKRDMTQFELADRLGISYQAVSNWERGNSMPDIAKLPELAEIFGVTVDEILG | 0.161
HMALHLPTTTINGRQYYYFKSKEKITVYGLSKRLGLTRQEIVEHNPSAVDGIKRGSTLYFPVDEFAD | -2.09
HMKDTFHNLSEEKRERIIRAALGEFAASGYEKATLDGVVQAAGISKGGLYEYISSKEDLFRYLLEYSYD | -1.53
HMYNPAYDAEIKVILELARHGYWEEARERADELLKAAPDDTGVKRIQTWVRQQEQRMREQAIEDSIRA | -0.0287
HMSILTELDIGDKVEVVAGPFKGIQANITRIEPVRKEVTVILLDAPYQLPVTVDADYLKIIQKS | -0.155
HMDYKSKLQELVQTEKRTVEYKLVDESGPAHNKSFTFEVVISGIKYGSGTGASKKIAEQNAAKEALEKLA | -0.0871
HMDAYSYFIRTYPLVDDPLIGDIRRIFAETHDGNPAGDADVRHILWRLLFERELYPTLDEATADWY | -2.54
HMSKTEEIAYTTFVKYLENKDIEEVYLGNNAKIKVILKDGREMITDNPRTADFKKDLLLHDIKVVEKT | 0.219
HMDTIVVAARSIQARQTLTESDLRVEEQEIGAASDKYYTDIAEAVGLVSSRRLSPGQPILRTM | -0.28
HMATPRLAIVPQSAAGRRLDAVLAELFPEYSRSRLSAWIKTGDVMVDGAAPRGRDPVRGGEEITLTAVQ | -0.033
HMIGEKLKEIREKTGMNKKEFAQYLGLKYTTYNNYETEAREPASDFLILISTKFDVSIDYLLGLQ | -0.674
HMKKTPLSELTNRAVELFIETVFMERNYSVSSQRQFISALKIFTVFYPQTKIHNLSLERLQSSFDKLLN | -0.452
HMDRENNITAGREILEKELSRLALNMKMVNLQDYAARFNVKHSDDILAGIGAGDIRPAHIVNAIAEKLT | 0.144
HMELLSVPSRLGTFFLGGEAGHIIRLYLPGDPTPRIAEHETPVLSEARRQLLEYLAGRRTAFSFPL | -0.139
HMLRQRVFRIIQNNINSKNYFVYTKQILAELAGISMRSLNRTLSELQNDRLIIVDSGTIRLFT | -1.49
HMLPVFNYQVYRTHGLIYVYAKDNDSFDQIARSMGFKAKQLMKFNEVPEDFPLQAGDIVYLEKKKK | -1.42
HMIIYGLNPVKDFINLFPNKISTLFISKNKLSDSEMKSVVNINTVYVSDAELKRITGTTKHQSLAAEID | -1.21
HMNDNQNKQMLWELLKDNRAFDNFDNKDYKTIIHLFNETVNTIDHRTPNLDLIKKNKIFIQDIMQKLSNL | -1.13
HMTFVHTQIEATKEWIISHPLDKHPAVAVVDSAGSIVIGEVDYISKSIVRLRFTAEFSGKAYL | -0.598
HMLAMHVVESVGGAEQFTKLQNFAKTQNADYQKMWNDTMNSGNVLAIKTMLSGIQSDMIAVQ | -0.16
HMNGAAAEQARKQLMTALKASEFIAQDKLDEWLDALALPQEKRSAIIDAVDELDYEEAISELEN | -0.0176
HMQGEVVTNRSVIDMSRAGLSADIIRAKILRSDTNFDVTAKALIELKESGVPDDIIALMLERADS | 0.128
HMKIDLPIWLNKKAWEAWVEYKKERKQKLTPSIIKFQLRILEKNKEDHPEIIRNSITNGWTGLFPLK | -1.27
HMENPPISVVIPPSFRGQRIDKALGSLIGDYSRSKIQQWLQSGLVQSAGEPLLPKYTVLGNEQILIAVPS | 0.00382
HMIHSEDMDDHILGHKLVDQYLNKHIEFDNIKKAWNYHTVAIKKFGRYPHRNKILKRESTIEEIDFLKQP | 0.149
HMGTTMLEVPNFVGEVFKEIDPEKYPNLRLVDSDYTYSNEYEAGKVISQDPVARTQVAEGSTVKLVIS | 0.133
HMESFGVAIKRLREAQGWTRADFLRQLGKTGYYMHATTLKRIEEGEQIAKVHEAVIISRLFGVTVEEMG | -2.94
